The nanobody polyreactivity screen of Harvey et al. (2022)

Assay: yeast display, Sf9 membrane polyspecificity reagent, FACS + sequencing; frameworks hold sequencing errors
Outline: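 Galactose-induced (36–48 hours) yeast carrying a synthetic nanobody display library were exposed to 10% biotinylated, detergent-solubilized Sf9 membrane reagent at 4 °C for 1 hour. FACS followed streptavidin microbead enrichment, using low and high (top ~1%) gates for expression (anti-HA) and reagent binding (streptavidin). Colony PCR, MiSeq 2 × 250 sequencing and CDR-length filtering followed. Labels for polyreactivity reflect the gate of origin.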

Sequence | polyreactivity (PSR sort gate)
QVQLVESGGGLVQAGGTLRLSCAASGSIFRYYAMGWYRQAPGKERELVATITSTGGSTYYADSVKGRFTISRDNAKNTVYLQMNSLKPEDTAVYYCAARNKLYVTVRGYYLSGYWGQGTQVTVSS | high polyreactivity
QVQLVESGGGLVQAGGSLRLSCAASGSIFYNYAMGWYRQAPGKERELVAAISGSGGSTYYADSVKGRFTISRDNAKNTVYGQMNSLKPEDTAVYYCSTSGPQYYSRNFDYWGQGTQVTVSS | low polyreactivity
QVQLVESGGGLVQAGGRLRLSCAASGRTFSKYPLGWYRQAPGKERELVAAITSGGGTYYADSVKGRFTFSRDNAKNPVYLQMHSRKPEDTAVYYCAVSGTTVSTYDYWGQCTQVTVSS | low polyreactivity
QVQLEESGGGLEQAGGSLRLSCAATGSIFNFYAMAWYIRAPGKERELVAAITRSGGSTYYADSVKGRFTISRDNAKNTVYLQMNSLIPEDTAVYYCSAASRKRTSREPLDYWGQGTQVTVSS | high polyreactivity
HVQLVESGGGLVQAGGSLRLSCAASGRTFLGNAMGWYRQAPGKERQLVAVITGSGARTYYADSEKGRFTISRDNAKNTVYLQMNSLKPEDTAVYYCAAAGFSGQYRSYYWGQGTQVTVSS | high polyreactivity
QVQLVESGGGLVQAGGSLRLSCAASGRTFIGYAMGWYRQAPGKERELVAAISRGGSTKYADSVKGRFTISRDNAKNTVYLQMNSLKPEDTAVYYCAVGWSYYAGLRHRYYSGFDYWGQGTQVTLSS | low polyreactivity
QVQLVESGGGLVQAGGTLPLTCAASGSTYYVYAMGCDRQAPGKEREFVAAITGSDGSTYYADSVMGRFTISRDNAKNTVYLQMNSLKPEDTAVYYCAADYYLQNYETGYGYWGQGTQVTVSS | low polyreactivity
QVQLVESGGGLVQAGGSLRLSCAASGGIFYPNVKGWYRQAPGKEREFVAAISSSSGSTYADSVKGRFTISRDNAKNTVYLQMNSLKPDDTAVFYCAAEENWWGIWVRYDYWVQGTQVTVSS | low polyreactivity
QVQLVESGGGLVQAGGSLRLSCAASGRTFDDYPMGWYRQAPGKDSELVAAITRRGGSTYYADSVKGRFTISRDNAKNTVYLQMNSLNPEDTAVYYCAADLFFKARGYDYWGQGTQVTVST | high polyreactivity
QVQLEESGGGLVQAGGSLRLSCAASGSTFSDNAKAWYRQATGKVRELVADITWSGGSTHYADSVKGRFTFSRDNAKNTVYLQMTSLKPEDTSVYYCARDNYKEGDYWGQGTKVTVSS | low polyreactivity
QVQLVESGGGLVQAGGSLRLSCAASGRIFVYNAMGLYRQAPGKERELVAAISSTGSTNYADSVKGRFTISRDNAKNTVYLQMNSLKPEDTAVYYFAAVYYFYGYSGYYGQYDYWGQGTQVTVSS | low polyreactivity
QVQLVESGGGLLQAGGSLRLSCAASGHIFRGYTMGWYRPAPGKERELVATITWNGVSTFYADSVKGRFTISRDTAKNTVYLQMNSLKPEDTSVYYCAAYYASHDYSGFWSDTYEYWGQGTQVTVSS | low polyreactivity
QDQLVESGGGLVQAGGSLRLSCAASGSTFSRYAMGWYRQAPGKERELVAAITSSGGSTYYADSVKGRFTISRDNAKNTVYLQMNSLKPEDTAVYYCAASYQVRYDYWGQGTQVTVSS | high polyreactivity
QVQLVESGGGLVQAGGSLRLSCAASGITFTDYAMGWYRPAPGKERELVAAISSRGGSTYYADSVKGRFTISRDHAKNTVYLQMNSLKPEDTAVYYCNARFVRRGSGYDYWGQGTQVTLSS | high polyreactivity
QVQLVESGGGLVQAGGSLRLSCAASGFTFRSNAMGWYRQAPGKERELVAAITRGGGSTYYADSVKGRFTISRDNEKNTVYLQMNSLKPEDTAVYYCAAGGFRTSRRDYWGQGTQVTVSS | high polyreactivity
QVQLVESGGGLVQAGGSLRLSCAASGRTLHYYAMGWYRQAPGKERELVARINWSGGSTYYADSVKGRFTISRDNAKNTVYLQMNCLKPEDTAVYYCARTSYYWSSFDYWGQGTQVTVSS | high polyreactivity
QVQLVESGGGLVQAGGSLRLSCAASGSTFRYYVMGWYRQAPGKERELVAAISRTGGRTYYADSVKGRFTISRDNAKNTVYLQMNSLKPEDTAVYYCAARNVTTKRYYYWGQGTQVTVSS | high polyreactivity
QVQLVESGGGLVQAGGSLRLSCAASGRTFYLYTMGWYRQAPGKERELVAAITRGGNTYYADSVKGRFTISRDNAKNTVYLQMNSLKPEDTAVYYCAAADYTTPVPYGRKGFDYWGQGTQVTVSS | low polyreactivity
QVQLVESGGGLVQAGRSLRLSCAASGRIFAQNAMGWYRQAPGKERELVAAISWGGGGTYYADSVKGRFTISRDNAKNTVYLQMNSLKPEDTAVYYCAADSPGFGAWDRYEYWGQGTQVTVSS | low polyreactivity
QVQLVESGGGLVQAGGSLRLSCAASGTTFRLYAMGWSIQAPGKERELVAAISRSGRTNYADSVKGSFTISRDNAKNTVYLQLNSLKPEDTAVYYCATVPGKCGDYWGQGTQVTVSS | high polyreactivity
QVQLVESGGGLVQAGGSLRLSCAPSGFTFRIYAMGWYRQAPGKERELVAAISWAGGSTFYADSVKGRFTISRDNAKNTVYLQLNSLKPEDTAVYYCAADTAFNYDYWGQGTQVTVSS | low polyreactivity
QVQLVESGGGLVQAGGSLRLSCADSGFTFCSYTMGWYRQAPGKERELVAAITGGGNTKYADSVKGRFTISRDNAKNTFYLQMISLKPEDSAVYYCARLSRYKSYYTSRFDYWGQGNQVTVSS | high polyreactivity

Sequence | polyreactivity (PSR sort gate)
QVQLVESGGALVQAGGSLRLSCAASAGNFTGYAMGWSRQAPGKERELVATITSGGSTNYADSVKGRFTISRDNAKNSFYFQLNSLKPEDTAVYYCALDYIGDTPIWQYDYWGQGTQVTVSS | low polyreactivity
QDQLVESGGGLVQAGGSLRLSCAASGSNFVPYAMGWYRQSPGKERELVAAISGSGTRTYYAYSVKGRFTISRDNSKNTVYLQMNSLKPEDTAVYYCDADWRRSVGYTMGYWGQGTQVTVSS | high polyreactivity
QVQLVESGGGLVQAGGSLRLSCAASGSIFYSYAMGWYRQAPGKERELVAAISWDASTYYADSVKGRFTISRDNAKNTVYLQMNSLKPEDTAVYFCNADIPYYFVYDAYDYWGQGTQVTVSS | low polyreactivity
QVQLLESGGGLVQAGGSRRLSCAASGRTFIFNAMGWYRQAPGKETELVAAISSGGGTNYADSEKGRFTISRDNAKNTVYLQMNSLKPEDTAVYYCARGSYKYRHSYDYWGQGTEVTVSS | low polyreactivity
QVQLVESGGGLVQAGGSLRLSCAASGSIFDSYTMAWYRQEPGKEREFVAAISRGGGSTYYADSVKGRFTISRDNAKNTVYLQMNSLKPEDTAVYYCAASSYLNSRFKFDYWGQGTQVTVSS | low polyreactivity
QVQLVESGGGLVQAGGSLRLSCAASGRTFSSYAMGWYRQAPGKEREFVAAINKNGGSTFYADSVKGRFTISRDNAKNTVYFQMNSLKPEDTAVYYCNADTDWWNPYNYWGQGTQVTVST | low polyreactivity
QVQLVDSGGGLVQAGGSLPLSCAASGSIFSFYAMGWYRQAPGKERELVAAISGNGGRTYYADSVKGRFTISRDNAKNSVYLQMNSLKPEDTAVYYCAAYNSPRLCYWGQGTQVTVSS | high polyreactivity
QVQLVESGGGLVQAGGSLRLSCAASGSTFTANAMGWYRQAPGKERELVASISARDGSTYADSVKGRFTISRDNAKKTVYLQMNSLKPEDTAVYYCNAAYFHIFPYDYDYWGQGTQVTVSS | low polyreactivity
QVQLVESGGGLVQAGGSLRLSCAASGIIFYSYTMGWYRQAPGKERELVAAISRNGGGTYYADSEKGRFTISRDNAKNTVYLQMNSLNPEETAVYYCAAEVDQWYYRGYDYWGQGTQVTVSS | high polyreactivity
QVQLVESGGGLVQAGGSLRLSCAASGSIFGRNAMGWYRQAPGKEREIVAAISQRGGRTYYADSVKGRFTISRDNAKNTVYLQMNRLKPEDTAVYYCAATYTRVPNRFYYWGQGTQVTVSS | high polyreactivity
QVQLVESGGGLVQAGGSLRLSCAASGFTFYRYAMGWYRQAPGKERELVAAINWSGVSTYYADSVKGRFTISRDNAKNTVYLQMNSLKPEDTAVYYCAADTYAGYNGNYWGQGTQVTVSS | high polyreactivity
QVQLIESGGGLVQAGGSLRLSCAASGSIFYINTMGWYRQAPGKERELVATIRTSGGSTYADSVKGRFTISRDNAKNTVYLQMNSLKPEDTAVYYCAVRRYRSSSYGYYSWGQGTQVTVSS | high polyreactivity
QVQLVESGGGLVQAGGSLRLSCAASGFIFGQYAMGWSRQAPGKERELVAAISESGGRTYYADSVKGRFTISRDNAKNTVYLQMNSLKPEDTAVYYCAADKSKYRAFDYWGQGTQVTVSS | high polyreactivity
QVQLVESGGGLVQAGGSLRLSCAASGSIFGNYAMGWYRQAPGKEREFVARISRGARTYYADSVKGRFTISRDNAKNTVYLQMNSLKPEDTAVYYCNARDYSVSYSVRFDYWGQGTQVTVSS | high polyreactivity
QVQLVESGGGLVQAGGSLRLSCAASGRIFYNYAMGWYRQAPGKERELVAAISGSGGSTYYADSVKGRFTISRDNAKNTVYLQMNSLTPEDTAVYYCSTSGPQYYSRNFDYWGQGTQVTVSS | low polyreactivity
QVQLVESGGCLVQAGGSLRLSCAASGITFKYYVMGWYRQAPGKEREFVAAISWGGGSPYYADSVKGRCTISRDNAKNTVYVQMNSLKPEDTAVYYCAATSAYGRYRYYYWGQGTQVTVSS | high polyreactivity
QVQLVESGGGLVQAGGSLRLSCAASGRTFTSYVMGWYRQAPGKERELVAAISWSGDSTYYADSVKGRFTISRDNAKNTVYLQMNSLKPEDTAVDYCARVPPAAYVAYDYWGQGTQVTVSS | high polyreactivity
QVQLVESGGGIVQAGGSLRLSCAASGFIFDSYAMGWYRQAPGKERELVAAITTSGGRTYYADSVKGRFTISRDNAKNTVYLQMNSLKPEDTAVYYCAAKYTARWGFDYWGQGTQVTVSS | high polyreactivity
QVQRVESGGGLVQAGGSLRLSWAASGSTFSRYAMGWYRQAPGTERELVAAISASGGGTYYADSVKGRFTISRDNAKNTVYLQMNSLQPEDTAVFYCAAVRIARAVQDYDYWGQGTQVTVSS | high polyreactivity
QVQLVESGGGLVQAGGSLRLSCAASGRTYDNTMGWYRKAHGKESELVAAISWSGGRTRYADSVKGRFTISRDNAKNTVYLQMNSLKPEDTAVYYCAAANGGYPPYRYVYGYYYWGQGTQVTVSS | high polyreactivity
KSGGGLVQAGGSLRLSCAASGRIYVEYAMAWYKQAPGKERELVASISWSGDSTYYAESVKGRFTISRDNAKNTVYSQKKSLKPEATAVYYCNADGQVGYAVSYDYWGQGTQVTVSS | low polyreactivity
